# B1: LAX09: Exendin-4 (SEQ ID NO: 1) fused via linker SEQ ID NO: 3 to Fc fragment of human IgG2; SEQ ID NO: 4 (protein)
# chain: HGEGTFTSDLSKQMEEEAVRLFIEWLKDGGPSSGAPPPSGGGGAGGGGVECPPCPAPPVAGPSVFLFPPKPKDTLMISRTPEVTCVVVDVSHEDPEVQFNWYVDGVEVHNAKTKPREEQFNSTFRVVSVLTVVHQDWLNGKEYKCKVSNKGLPAPIEKTISKTKGQPREPQVYTLPPSREEMTKNQVSLTCLVKGFYPSDIAVEWESNGQPENNYKTTPPMLDSDGSFFLYSKLTVDKSRWQQGNVFSCSVMHEALHNHYTQKSLSLSPGK
# modifications: The sequence is synthesized
# Tests used:
# [1] = system: db/db diabetic model mice; experiment: Single injection hypoglycemic test, db/db mouse obesity diabetic model; assay type: in vivo; settings: 1 mg/Kg and 0.1 mg/Kg groups, single injection through caudal vein, 0-240 min
# [2] = system: KK-Ay diabetic model mice; experiment: Long-term administration experiment, KK-Ay diabetic model mice; assay type: in vivo, mouse; settings: 1 mg/Kg twice per week
# Method: The drug is given twice per week, and the mice are fasted for 6 h each Wednesday and tested for fast blood glucose, meanwhile their food intake and weight variation are recorded. […] Specifically, long term administration is conducted according to the following protocol: the KK-Ay diabetic model mice are randomized into blank control group (injected only with PBS) and experimental group (injected with 1 mg/Kg of the fusion protein in Table 3). The drug is given twice per week; after 2 weeks, the mice are fasted for 6 h and tested for fasting blood glucose, and the blood glucose decrease of one experimental group is calculated by subtracting the fasting blood glucose of the experimental group from that of the blank control group.
# human GLP-1 receptor [3] = biological target: T1, human GLP-1 receptor (Homo sapiens, UniProt P43220); experiment: Combining (binding) test with CHO engineering cell line expressing human GLP-1R, flow cytometry; settings: 4° C. 30 min
# T1 construct: expressed in transfected cells; host or cells: CHO (CHO-hGLP1R)
# T1 sequence (P43220 24-463): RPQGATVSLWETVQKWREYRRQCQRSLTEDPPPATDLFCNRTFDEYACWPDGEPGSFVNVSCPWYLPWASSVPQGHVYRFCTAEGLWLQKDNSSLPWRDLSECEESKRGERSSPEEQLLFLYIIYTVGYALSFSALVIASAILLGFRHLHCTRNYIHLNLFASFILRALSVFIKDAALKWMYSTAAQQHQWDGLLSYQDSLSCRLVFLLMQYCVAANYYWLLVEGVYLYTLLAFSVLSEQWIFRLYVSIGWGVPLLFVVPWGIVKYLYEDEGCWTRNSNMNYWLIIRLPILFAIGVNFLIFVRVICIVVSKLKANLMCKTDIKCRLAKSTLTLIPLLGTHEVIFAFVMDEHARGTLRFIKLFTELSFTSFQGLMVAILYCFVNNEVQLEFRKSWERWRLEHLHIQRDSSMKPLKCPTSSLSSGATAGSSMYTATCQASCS
# Method: After PBS washing, human immunoglobulin γ chain antibody labeled with fluorescein FITC is added, and incubate at 4° C. for 30 min. After PBS washing, 1% paraformaldehyde in PBS is added, mix thoroughly and load the sample, read the mean fluorescence intensity of sample of each concentration in selected zone in the flow cytometry.
# [4] = system: KK-Ay diabetic model mice; experiment: Single injection hypoglycemic test, KK-Ay mouse obesity diabetic model; assay type: in vivo; settings: 1 mg/Kg, single injection through caudal vein, 0-240 min, fasted 2 h
# [5] = system: KK-Ay diabetic model mice; experiment: Oral glucose tolerance test, KK-Ay diabetic model mice; assay type: in vivo, mouse; settings: 1 mg/Kg and 0.1 mg/Kg subcutaneously, glucose 1 mg/g by gastric tube 6 h later
# human GLP-1 receptor [6] = biological target: T1, human GLP-1 receptor; experiment: cAMP secretion test on human GLP-1 receptor CHO cell (CHO-hGLP1R); assay type: cell-based; settings: for cAMP concentration: 30 min incubation, CHO-hGLP1R
molecule,measurement,setting,value
B1,hypoglycemic effect (blood glucose),[1],best hypoglycemic effect
same,food intake,[2],decreases
same,weight,[2],significantly reduced
same,fast blood glucose,"[2]; fasted 6 h, versus PBS group",significantly different from that of PBS group
same,Mean fluorescence intensity,human GLP-1 receptor [3]; LAX09 mass concentration 0.098 μg/mL,14.12
same,Mean fluorescence intensity,human GLP-1 receptor [3]; LAX09 mass concentration 0.246 μg/mL,17.53
same,Mean fluorescence intensity,human GLP-1 receptor [3]; LAX09 mass concentration 0.614 μg/mL,21.78
same,Mean fluorescence intensity,human GLP-1 receptor [3]; LAX09 mass concentration 1.536 μg/mL,38.01
same,Mean fluorescence intensity,human GLP-1 receptor [3]; LAX09 mass concentration 3.84 μg/mL,57.03
same,Mean fluorescence intensity,human GLP-1 receptor [3]; LAX09 mass concentration 9.6 μg/mL,81.54
same,Mean fluorescence intensity,human GLP-1 receptor [3]; LAX09 mass concentration 24 μg/mL,94.81
same,Mean fluorescence intensity,human GLP-1 receptor [3]; LAX09 mass concentration 60 μg/mL,121.98
same,blood glucose of the mouse,[4],under 10 mmol/L
same,ability to maintain normal blood glucose (oral glucose tolerance),[5],same good ability to maintain normal blood glucose
same,EC50,human GLP-1 receptor [6]; cAMP in CHO-hGLP1R cells,~4.5 nM
same,cAMP concentration,human GLP-1 receptor [6]; drug concentration 0.01 nM,2
same,cAMP concentration,human GLP-1 receptor [6]; drug concentration 0.1 nM,5
same,cAMP concentration,human GLP-1 receptor [6]; drug concentration 1 nM,31
same,cAMP concentration,human GLP-1 receptor [6]; drug concentration 10 nM,115
same,cAMP concentration,human GLP-1 receptor [6]; drug concentration 1000 nM,153
